Measured values taken from patent US20210163534A1 (KYUNGPOOK NATIONAL UNIVERSITY INDUSTRY ACADEMIC COOPERATION …, published 2021).
No end group written: not given here.

Target: T1, PD-L1 expressed on MDA-MB231 cells (human, UniProt Q9NZQ7 19-290)
T1 construct: whole, on cells; Endogenous protein of a human cell line; also called MDA-MB 231 cells expressing PD-L1
Test: flow cytometry on MDA-MB231 cells after siRNA knockdown of PD-L1

T1 sequence (Q9NZQ7 19-290): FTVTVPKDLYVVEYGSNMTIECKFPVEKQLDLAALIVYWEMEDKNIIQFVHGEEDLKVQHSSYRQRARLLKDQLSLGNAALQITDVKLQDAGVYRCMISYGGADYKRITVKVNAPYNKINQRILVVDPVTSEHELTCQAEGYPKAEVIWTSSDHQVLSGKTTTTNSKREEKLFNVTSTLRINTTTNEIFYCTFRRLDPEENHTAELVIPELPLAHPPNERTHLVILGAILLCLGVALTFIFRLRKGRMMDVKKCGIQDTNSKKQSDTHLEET

Binder | binding result
CLQKTPKQC (cysteine pairing not given here; also: N-terminal FITC, biotin or Flamma-675 depending on assay, also called PBP) [PD-L1Pep-1] | binds
CVRARTR (also: N-terminal FITC, biotin or Flamma-675 depending on assay, Synthetic peptide CVRARTR from a T7 phage library; also called PBP) [PD-L1Pep-2] | binds
